Measured values reported in PMC9452770.

Molecular target: VaERF16-GFP (Vitis amurensis 'Shuang You')

dual-luciferase assay in tobacco leaves: activation of the VaPDF1.2 promoter (LUC/REN) by 62-SK-VaERF16 and 62-SK-VaMYB306 co-expressed (untagged full-length effectors): 3.5 fold
Substance: VaMYB306-HA (natural protein)
